In experiment [1] the target is T1, GPC3 peptide 21-50 (SEQ ID NO: 2) (human).
T1 construct: Synthetic 30-residue peptide of GPC3
T1 peptide: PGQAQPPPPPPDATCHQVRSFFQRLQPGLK
In words: peptide ELISA, peptide on plate. Background: An ELISA detects its analyte on a solid surface through an enzyme-linked reagent.

The target in experiment [2] is T2, GPC3 peptide 141-170 (SEQ ID NO: 8) (human).
T2 construct: Synthetic 30-residue peptide of GPC3
T2 peptide: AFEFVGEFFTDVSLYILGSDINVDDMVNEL
The experiment can be described thus: peptide ELISA, peptide on plate.

Experiment [3] has as its target T3, AW5, C-terminally His-tagged recombinant product of positions 1 to 357 of GPC3 (human, UniProt P51654 25-357).
T3 construct: Expressed in CHO cells, cell pellets used in Western blot; The range is as printed and starts at position 1; also called AW5 (1-357); not shown: C-terminal His tag
The experiment can be described thus: Western blot analysis, CHO cell pellets.

The target in experiment [4] is GPC3 core (sGPC3-His) protein (human) (UniProt P51654). The experiment can be described thus: ELISA on plate-bound sGPC3; biotin-labeled GT114, no unlabeled antibody.
The target is the same in experiment [5]. The experiment can be described thus: competition ELISA on plate-bound sGPC3; unlabeled GT114 (100-fold) against competitor biotin-labeled GT30.
Experiment [6] shares this target. The experiment can be described thus: competition ELISA on plate-bound sGPC3; unlabeled GT114 (100-fold) against competitor biotin-labeled GT114.
Experiment [7] shares this target. In words: competition ELISA on plate-bound sGPC3; unlabeled GT114 (100-fold) against competitor biotin-labeled GT30; signal of the labeled antibody.
Experiment [8] has the same target. The experiment can be described thus: competition ELISA on plate-bound sGPC3; unlabeled GT114 (100-fold) against competitor biotin-labeled GT114; signal of the labeled antibody.
Experiment [9] shares this target. In words: competition ELISA on plate-bound sGPC3; unlabeled GT114 (100-fold) against competitor biotin-labeled GT165; signal of the labeled antibody.
Experiment [10] shares this target. The experiment can be described thus: competition ELISA on plate-bound sGPC3; unlabeled GT114 (100-fold) against competitor biotin-labeled GT607; signal of the labeled antibody.
Experiment [11] concerns the target T3, AW5, C-terminally His-tagged …. The experiment can be described thus: Western blot, pellets of CHO cells expressing the product. In general terms: In western blotting, separated proteins are transferred to a membrane and probed.
Experiment [12] addresses GPC3 core (sGPC3-His) protein (human) (UniProt P51654). The experiment can be described thus: ELISA on plate-bound sGPC3; biotin-labeled GT165, no unlabeled antibody.
The target is the same in experiment [13]. In words: competition ELISA on plate-bound sGPC3; unlabeled GT165 (100-fold) against competitor biotin-labeled GT30.
The target is the same in experiment [14]. The experiment can be described thus: competition ELISA on plate-bound sGPC3; unlabeled GT165 (100-fold) against competitor biotin-labeled GT114.
The target is the same in experiment [15]. The experiment can be described thus: competition ELISA on plate-bound sGPC3; unlabeled GT165 (100-fold) against competitor biotin-labeled GT165.
For experiment [16] the target is unchanged. In words: competition ELISA on plate-bound sGPC3; unlabeled GT165 (100-fold) against competitor biotin-labeled GT607.
Experiment [17] has the same target. The experiment can be described thus: competition ELISA on plate-bound sGPC3; unlabeled GT165 (100-fold) against competitor biotin-labeled GT30; signal of the labeled antibody.
Experiment [18] has the same target. The experiment can be described thus: competition ELISA on plate-bound sGPC3; unlabeled GT165 (100-fold) against competitor biotin-labeled GT607; signal of the labeled antibody.
Experiment [19] has the same target. In words: ELISA on plate-bound sGPC3; biotin-labeled GT607, no unlabeled antibody.
For experiment [20] the target is unchanged. In words: competition ELISA on plate-bound sGPC3; unlabeled GT607 (100-fold) against competitor biotin-labeled GT30.
For experiment [21] the target is unchanged. The experiment can be described thus: competition ELISA on plate-bound sGPC3; unlabeled GT607 (100-fold) against competitor biotin-labeled GT114.
Experiment [22] has the same target. The experiment can be described thus: competition ELISA on plate-bound sGPC3; unlabeled GT607 (100-fold) against competitor biotin-labeled GT165.
The target is the same in experiment [23]. In words: competition ELISA on plate-bound sGPC3; unlabeled GT607 (100-fold) against competitor biotin-labeled GT607.
Experiment [24] shares this target. In words: competition ELISA on plate-bound sGPC3; unlabeled GT607 (100-fold) against competitor biotin-labeled GT30; signal of the labeled antibody.
For experiment [25] the target is unchanged. In words: competition ELISA on plate-bound sGPC3; unlabeled GT607 (100-fold) against competitor biotin-labeled GT114; signal of the labeled antibody.
Experiment [26] has the same target. In words: competition ELISA on plate-bound sGPC3; unlabeled GT607 (100-fold) against competitor biotin-labeled GT607; signal of the labeled antibody.

A value given as a limit tells only on which side of the number the result lay.

T3 sequence (P51654 25-357): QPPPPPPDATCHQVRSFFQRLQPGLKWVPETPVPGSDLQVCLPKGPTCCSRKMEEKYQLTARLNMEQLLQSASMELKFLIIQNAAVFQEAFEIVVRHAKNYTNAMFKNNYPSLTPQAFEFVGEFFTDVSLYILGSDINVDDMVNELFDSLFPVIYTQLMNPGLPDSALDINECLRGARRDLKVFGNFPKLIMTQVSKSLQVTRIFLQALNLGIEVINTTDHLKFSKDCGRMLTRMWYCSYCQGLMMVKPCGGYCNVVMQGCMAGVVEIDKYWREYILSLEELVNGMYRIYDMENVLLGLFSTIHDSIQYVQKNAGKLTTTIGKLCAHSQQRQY
Sequence of GPC3 core (sGPC3-His) protein (human) (P51654 25-563 S495A/S509A): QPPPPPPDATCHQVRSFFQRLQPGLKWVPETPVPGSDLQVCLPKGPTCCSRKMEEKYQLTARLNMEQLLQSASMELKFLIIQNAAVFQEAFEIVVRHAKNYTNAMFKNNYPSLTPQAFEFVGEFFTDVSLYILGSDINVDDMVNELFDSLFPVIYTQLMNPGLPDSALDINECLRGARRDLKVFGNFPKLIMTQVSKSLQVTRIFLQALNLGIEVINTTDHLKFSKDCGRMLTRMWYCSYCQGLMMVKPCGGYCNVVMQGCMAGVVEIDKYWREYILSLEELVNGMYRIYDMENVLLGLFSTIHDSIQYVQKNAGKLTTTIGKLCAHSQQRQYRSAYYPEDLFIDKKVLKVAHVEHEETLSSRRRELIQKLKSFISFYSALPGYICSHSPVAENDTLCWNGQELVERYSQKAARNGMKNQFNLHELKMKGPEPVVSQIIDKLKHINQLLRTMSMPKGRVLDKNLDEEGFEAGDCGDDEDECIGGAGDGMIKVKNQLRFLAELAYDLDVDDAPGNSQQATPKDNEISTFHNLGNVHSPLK

B1: GT114 antibody (antibody, IgG1, V domains shown)
VH: DVQLQESGPGLVKPSQSLSLTCTVTGYSITSDSAWNWIRQFPGNKLEWMAYIMYSGITSYNPSLKSRISITRDTAKNQFFLQLNSVTTEDSATYYCSRGYWYFDVWGAGTTVTVSS
VL: QIVLTQSPAIMSASLGEEITLTCSASSSVSYMHWYQQKSGTSPKLLIYSTSILASGVPSRFSGSGSGTFYSLTISSVEAEDAADYYCLQWITYRTFGGGTKLEIKR
Consider B1, for which the binding result is “no binding (tested: 2 µg/mL)” in [1], “no binding (tested: 2 µg/mL)” in [2] and “binds” in [3]. Besides, the O.D. 450 in [4] was 2.3 O.D. 450; in experiment [7] it was 2.14 O.D. 450; in experiment [8], 0.251 O.D. 450; in [9], 1.82 O.D. 450; in experiment [10], 0.307 O.D. 450. The Inhibitory effect (%) is less than 0% in [5] and 89% in experiment [6].

B2: GT165 antibody (antibody, IgG1, V domains shown)
VH: QVQLQQSGAELVGPGASVKISCKAFGYTFTNHHINWVKQRPGQGLDWIGYINPYNDYTNYNQKFKGKATLTVDKSSSTAYMELSSLTSEDSAVYYCARSDPAWFAYWGQGTLVTVSA
VL: DIQMTQSPSSLSASLGGKVTITCKASQDINKNIAWYQHKPGKGPRLLIWYTYTLQPGIPSRFSGSGSGRDYSFSISNLEPEDIATYYCLQYDNLPFTFGTGTKLEIKR
Turning to B2, the binding result in experiment [1] is listed as “no binding (tested: 2 µg/mL)”; in [2] it was “no binding (tested: 2 µg/mL)”; in [11], “no binding”. In addition, the O.D. 450 in [12] is 1.68 O.D. 450; in [17], 0.846 O.D. 450; in experiment [18] it was 1.25 O.D. 450. Further, the Inhibitory effect (%) was found to be 54% in experiment [13], 1% in experiment [14], 93% in experiment [15] and 43% in experiment [16].

B3: GT607 antibody (antibody, IgG1, V domains shown)
VH: EVQLVESGGDVVRPGGSLKLSCAASGFTFSSYGMSWVRQLPDKRLEWVASVGNGGSYRYYPENLKGRFTISRDNTKNTLYLQISGLKSEDTAIYYCARRGAFPYFDVWGAGTTVTVSS
VL: QIVLTQSPAIMSASPGEKVTLACSASSSVTYMHWYQQKSGTSPKRWIYETSKLASGVPPRFSGSGSGTSYSLTISTMEAEDAATYYCQQWSSNPLTFGAGTKLELKR
As for B3, the binding result in experiment [1] is “no binding (tested: 2 µg/mL)”; in experiment [2] it was “no binding (tested: 2 µg/mL)”; in [3] it was “binds”. Further, the O.D. 450 amounted to 2.18 O.D. 450 in [19], 2.06 O.D. 450 in experiment [24], 1.13 O.D. 450 in [25] and 0.135 O.D. 450 in experiment [26]. Also, the Inhibitory effect (%) in experiment [20] was less than 0%; in [21] it was 51%; in experiment [22], 92%; in experiment [23] it was 94%.

The record behind these values is patent publication EP3088890B1 (Chugai Seiyaku Kabushiki Kaisha, dated 2020).
